From US20030153041A1
pKd: −log10 of the molar value.

Legend:
[1] = target: opossum kidney PTH/PTHrP receptor clone OK-H (opossum); experiment: cell-based or functional assay
[2] = target: human kidney PTH/PTHrP receptor (full-length cDNA HKrk) (human); experiment: competitive radioreceptor assay on COS-7 cells; human receptor against rat bone receptor
[3] = target: human kidney PTH/PTHrP receptor (full-length cDNA HKrk) (human); experiment: radioreceptor assay, radiolabelled ligand (~200,000 cpm) on COS-7 cells expressing the human receptor
[4] = target: rat bone PTH/PTHrP receptor clone R15B (rat); experiment: radioreceptor assay, radiolabelled ligand (~200,000 cpm) on COS-7 cells expressing R15B
[5] = target: rat bone PTH/PTHrP receptor clone R15B (rat); experiment: apparent Kd, competitive radioreceptor assay on COS-7 cells expressing the rat bone receptor (FIG. 17)
[6] = target: human kidney PTH/PTHrP receptor (full-length cDNA HKrk) (human); experiment: apparent Kd, competitive radioreceptor assay on COS-7 cells expressing the human receptor (FIG. 17)
[7] = target: rat bone PTH/PTHrP receptor clone R15B (rat); experiment: affinity from competitive radioreceptor assay on COS-7 cells expressing R15B
[8] = target: human kidney PTH/PTHrP receptor (full-length cDNA HKrk) (human); experiment: competitive radioreceptor assay on COS-7 cells; HKrK against R15B
[9] = target: human kidney PTH/PTHrP receptor (full-length cDNA HKrk) (human); experiment: affinity from competitive radioreceptor assay on COS-7 cells expressing HKrK
[10] = target: human kidney PTH/PTHrP receptor (full-length cDNA HKrk) (human); experiment: competitive radioreceptor assay on COS-7 cells; human receptor against rat receptor
[11] = target: human kidney PTH/PTHrP receptor (full-length cDNA HKrk) (human); experiment: affinity from competitive radioreceptor assay on COS-7 cells expressing HKrk

| Substance | concentration of intracellular free calcium (Fura-2) [1] [nm] | fold difference in apparent Kd against the rat bone PTH/PTHrP receptor [2] [fold] | specific binding [3] [%] | specific binding [4] [%] | pKd [5] | pKd [6] | pKd [7] | fold higher affinity against R15B [8] [fold] | pKd [9] | fold lower affinity against the rat receptor [10] [fold] | pKd [11] |
| --- | --- | --- | --- | --- | --- | --- | --- | --- | --- | --- | --- |
| [Nle^8,18, Tyr^34]bPTH(1-34)amide (from UniProt P01268 32-65) (peptide) | 39 | 2 | 10.1 | 8.1 | 8.00 | 8.30 |  |  |  |  |  |
| [Nle^8,18, Tyr^34]bPTH(7-34)amide (from UniProt P01268 38-65) (peptide) |  |  |  |  |  |  | 5.70 | 35 | 7.22 |  |  |
| [Nle^8,18, Tyr^34]bPTH(3-34)amide (from UniProt P01268 34-65) (peptide) |  |  |  |  |  |  | 7.35 | 7 | 8.15 |  |  |
| [Tyr^36]PTHrP(1-36)amide (from UniProt P12272 37-72) (peptide) |  |  | 7.6 | 7.1 |  |  | 8.00 |  |  | 2 to 4 | 7.46 |
